In patent publication EP4386000A1 (Nanjing Novoacine Bio-Technology Co., Ltd., dated 2024):
Read-outs that look alike come from different tables or passages of the source. Values belong to the binder of their own block, whether it stands above or below them.

Assays:
[1] = target: T1, CD25 on CD4+CD25+ Treg cells isolated from human PBMCs (human, UniProt P01589 22-272); assay: cell-based or functional assay
T1 sequence (looked up): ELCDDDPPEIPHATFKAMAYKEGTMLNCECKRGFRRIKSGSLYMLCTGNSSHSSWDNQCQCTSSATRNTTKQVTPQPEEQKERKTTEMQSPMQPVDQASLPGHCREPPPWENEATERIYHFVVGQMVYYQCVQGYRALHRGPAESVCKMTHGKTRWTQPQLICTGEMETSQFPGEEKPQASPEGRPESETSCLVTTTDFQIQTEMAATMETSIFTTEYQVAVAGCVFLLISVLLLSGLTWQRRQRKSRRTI

[2] = target: T2, cyno CD25-his (NCBI-H6WS54, Met1-Arg213) (cyno); assay: ELISA, cyno CD25-his coated
T2 construct: range 1-213; Range begins at Met1 (includes the signal peptide)

[3] = target: T3, human CD25 (NP_000408.1) (Met 1-Cys 213) C-terminally fused with 6-histidine tag (human, UniProt P01589 22-213); assay: ELISA, human CD25-his coated
T3 construct: range 1-213; Expressed in CHO-K1 cells; also called human CD25-his
T3 sequence: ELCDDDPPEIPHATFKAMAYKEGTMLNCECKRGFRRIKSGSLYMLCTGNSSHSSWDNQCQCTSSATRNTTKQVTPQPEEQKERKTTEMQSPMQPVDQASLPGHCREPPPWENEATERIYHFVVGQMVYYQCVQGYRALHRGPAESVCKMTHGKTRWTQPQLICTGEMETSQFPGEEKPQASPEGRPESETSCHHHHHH

[4] = target: T4, Mouse CD25-his (UniProtKB-P01590, Met1-Lys213) (mouse, UniProt P01590 22-213); assay: ELISA, mouse CD25-his coated
T4 construct: range 1-213; Range begins at Met1 (includes the signal peptide); not shown: his tag
T4 sequence (looked up): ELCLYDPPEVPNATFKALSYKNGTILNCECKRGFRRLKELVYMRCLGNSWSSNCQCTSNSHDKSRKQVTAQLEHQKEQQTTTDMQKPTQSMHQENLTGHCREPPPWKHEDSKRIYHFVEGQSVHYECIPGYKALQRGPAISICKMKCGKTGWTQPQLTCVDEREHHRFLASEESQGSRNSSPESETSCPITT

[5] = target: T5, human CD25 on CHO-K1/hCD25 cells (human, UniProt P01589 22-272); assay: flow cytometry on CHO-K1/hCD25 cells
T5 construct: whole, on cells; The construct of the cell line is not described
T5 sequence (looked up): T1 sequence (looked up)

[6] = target: T3, human CD25 (NP_000408.1) (Met 1-Cys …); assay: SPR (BIAcore X100), human CD25-his captured by anti-histidine antibody, antibody as analyte, 1:1 model
[7] = target: T1, CD25 on CD4+CD25+ Treg cells isolated …; assay: cell-based or functional assay; remark: listed apart in the source
[8] = target: T3, human CD25 (NP_000408.1) (Met 1-Cys …); assay: SPR (BIAcore X100), human CD25-his captured by anti-histidine antibody, antibody as analyte, 1:1 model; remark: listed apart in the source

EC50 [2]: 0.0549 µg/mL | EC50 [3]: 0.103 µg/mL | Relative activity (%) compared with 686 [3]: 101% | EC50 [5]: 0.00167 µg/mL | Relative activity (%) compared with 686 [5]: 73.3% | Kd [6]: 2.45 nM | koff [6]: 0.00933 s⁻¹ | kon [6]: 3.8e+06 M⁻¹ s⁻¹
B1: chimeric antibody 2046-36H2L1 (antibody, human IgG1, kappa, V domains shown)
VH: QIQLVQSGPELKKPGETVRISCKASGYTFTTAGMQWVQKMPGKGLKWIGWINTHSGVPKYAEDFKGRFAFSLETSASTAYLQISNLKNEDTATYFCASDYAFGYWGQGTLVTVSA
VL: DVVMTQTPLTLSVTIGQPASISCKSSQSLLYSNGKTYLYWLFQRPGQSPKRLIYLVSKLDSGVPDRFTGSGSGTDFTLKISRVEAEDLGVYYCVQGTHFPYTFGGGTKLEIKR
notes: Chimeric, human IgG1/kappa; also called 2046-36ix
EC50, killing Tregs in vitro (ADCC reporter, jurkat/CD16a/NFAT-luc) [1]: 52.4 µg/mL | Relative activity (%) compared with 686, killing Tregs in vitro [1]: 248% | binding result [4]: no binding (tested: starting at 100 ng/mL)

Kd [8]: 2.45 nM | koff [8]: 0.00137 s⁻¹ | kon [8]: 560000 M⁻¹ s⁻¹
B2: humanized antibody 2046-18H1L1-m2 (antibody, human IgG1, kappa, V domains shown)
VH: EVQLQESGPGLVKPSQTLSLTCTVSGYSITSDYAWNWIRQPPGKGLEWIGYISYSGITIYNPSLKSRVTISRDTSKNQFSLKLSSVTAADTAVYYCARWLLQIYYAMDYWGQGTLVTVSS
VL: EIVLTQSPGTLSLSPGERATLSCSSSQSLVHSNGNTYLHWYQQKPGQAPRLLIYKVSNRFSGIPDRFSGSGSGTDFTLTISRLEPEDFAVYYCSQSTHVPLTFGQGTKLEIKR
EC50, killing Tregs in vitro (ADCC reporter, jurkat/CD16a/NFAT-luc) [7]: 82.6 µg/mL
